Test results from patent US20090285798A1.

Target: gp120
Assay: fluorescence anisotropy, Kd values of Table I, told of the isolates together

Alexa labeled mini-protein CD4M47 (peptide)
fold gain of affinity over CD4M48: 3 fold
